The values below come from patent publication US20220195049A1 (Scripps Research, published 2022).

The target in experiment [1] is human PD-L1 expressed on the cell surface (human, UniProt Q9NZQ7 19-290). Briefly: cell-based or functional assay.
The target in experiment [2] is T1, mouse PD-L1 on IFN-gamma-treated MC38 murine colon cancer cells (mouse, UniProt Q9EP73 19-290).
T1 construct: whole, on cells; also called mouse PD-L1 protein
Put plainly: the sentence names no assay.

In experiment [3] the target is T2, PD-L1-Fc (PD-L1 antigen protein, extracellular region Met1-Thr239 fused to human Fc) (human, UniProt Q9NZQ7 19-239).
T2 construct: range 1-239; the secreted protein lacks it; also called PD-L1-Fc antigen; pCEP4-PDL1-Fc product; not shown: human Fc fragment of the pCEP4-Fc vector
T2 sequence (Q9NZQ7 19-239): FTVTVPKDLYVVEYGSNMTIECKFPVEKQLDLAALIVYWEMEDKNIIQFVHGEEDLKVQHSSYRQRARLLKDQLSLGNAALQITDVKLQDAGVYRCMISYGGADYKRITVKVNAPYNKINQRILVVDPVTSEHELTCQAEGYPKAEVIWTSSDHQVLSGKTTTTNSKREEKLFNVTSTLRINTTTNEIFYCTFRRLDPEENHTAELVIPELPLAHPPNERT
Briefly: BLI (Octet); PD-1-coated biosensor dipped in a mix of PD-L1 antigen protein and antibody; KD from the Octet software. A general note: Biolayer interferometry detects binding as a change in optical thickness at a sensor tip.

Experiment [4] has as its target T3, human PD-L1 antigen protein (Sino Biological) (human, UniProt Q9NZQ7 19-238).
T3 construct: Bought from Sino Biological
Put plainly: SPR (Biacore T200), antibody captured by anti-human IgG (Fc), PD-L1 as analyte, 1:1 model. The protocol: (§1) 3) In order to remove the bound antibody every cycle, a regeneration solution (3 M MgCl₂) was injected at a flow rate of 30 μl/min for 30 seconds, and the experimental data were obtained using a 1:1 binding model of BIA evaluation software version 1.0.
(In SPR one partner is held on a chip, and binding of the other changes the refractive index at the surface.)

For experiment [5], the target named is T4, mouse PD-L1 antigen protein (mouse, UniProt Q9EP73 19-238, limits assumed). The experiment is described as above. On the procedure: as §1
T4 sequence (Q9EP73 19-238 limits assumed): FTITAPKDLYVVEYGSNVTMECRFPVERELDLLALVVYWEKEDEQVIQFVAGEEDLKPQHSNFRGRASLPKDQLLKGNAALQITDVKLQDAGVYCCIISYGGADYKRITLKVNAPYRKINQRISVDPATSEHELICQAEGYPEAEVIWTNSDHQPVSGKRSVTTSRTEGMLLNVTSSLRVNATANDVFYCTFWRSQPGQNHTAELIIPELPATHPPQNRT
Experiment [6] has as its target T3, human PD-L1 antigen protein (Sino …). Briefly: SPR (Biacore T200), antibody captured by anti-human IgG (Fc) on a CM5 chip, hPD-L1 as analyte, 1:1 binding model. The protocol:
as §1

The target in experiment [7] is T4, mouse PD-L1 antigen protein. Briefly: SPR (Biacore T200), antibody captured by anti-human IgG (Fc) on a CM5 chip, mPD-L1 as analyte, 1:1 binding model. On the procedure:
as §1

Substitutions are numbered along the chain they refer to.

T3 sequence (Q9NZQ7 19-238 limits assumed): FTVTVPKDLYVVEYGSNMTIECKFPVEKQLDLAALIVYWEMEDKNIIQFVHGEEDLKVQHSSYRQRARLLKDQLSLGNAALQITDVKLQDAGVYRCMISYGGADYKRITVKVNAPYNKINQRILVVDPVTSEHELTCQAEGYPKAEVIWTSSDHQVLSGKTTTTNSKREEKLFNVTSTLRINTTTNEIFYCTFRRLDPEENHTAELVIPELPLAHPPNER
human PD-L1 expressed on the cell surface, sequence (Q9NZQ7 19-290): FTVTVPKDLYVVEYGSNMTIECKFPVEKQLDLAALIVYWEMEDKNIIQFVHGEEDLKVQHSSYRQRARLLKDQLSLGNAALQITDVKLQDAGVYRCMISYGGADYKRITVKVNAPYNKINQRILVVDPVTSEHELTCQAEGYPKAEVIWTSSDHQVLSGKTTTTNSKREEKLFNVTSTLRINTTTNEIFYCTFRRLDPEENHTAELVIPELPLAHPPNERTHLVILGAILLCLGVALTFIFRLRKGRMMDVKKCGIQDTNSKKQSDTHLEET
T1 sequence (Q9EP73 19-290): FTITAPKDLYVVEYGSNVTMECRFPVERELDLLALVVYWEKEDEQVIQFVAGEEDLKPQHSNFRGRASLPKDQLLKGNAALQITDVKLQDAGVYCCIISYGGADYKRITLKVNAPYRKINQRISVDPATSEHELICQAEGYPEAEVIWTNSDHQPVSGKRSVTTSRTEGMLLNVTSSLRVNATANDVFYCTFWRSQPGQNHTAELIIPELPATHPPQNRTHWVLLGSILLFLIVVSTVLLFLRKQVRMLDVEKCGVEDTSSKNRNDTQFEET

B1: KL001 (PL110) (antibody, V domains shown)
VH: QVQLVESGAEVKKPGSSVKVSCKASGGTFSSYAISWVRQAPGQGLEWMGRIIPILGIANYAQKFQGRVTVTADKSTSTAYMELSSLRSEDTAVYYCARSGYSYAYGSFDYWGQGTLVTVSS
VL: QLVLTQPPSVSGAPGQTVTISCTGPTIGAGYDVHWYQQLPGAAPKLLIYGNLNRPSGVPDRFSGSKSGTSASLAITDLQAEDEADYYCQSYDSRLGVVFGGGTKLTVLR
notes: IgG (VH-CH1-hinge-CH2-CH3 and VL-Ck); also called KL001 clone
Usually Kd stands for the concentration at which binding is half-saturated. As to B1, in experiment [1], the “PD-1/PD-L1 binding inhibitory performance relative to 100% of the MK3475 antibody (Promega PD-1/PD-L1 Blockade Bioassay)” value was 89%. The binding result in experiment [2] was “binds”. Besides, in experiment [3], binding was put at a Kd of 0.0584 nM.

B2: KL001-08 (antibody, V domains shown)
VH: B1 VH with S31G, I54A, S102G
VL: QLVLTQPPSVSGAPGQTVTISCTGPTIGAGYDVHWYQQLPGAAPKLLIYGNLNRPSGVPDRFSGSKSGTSASLAITDLQAEDEADYYCQSYDSTHGVVFGGGTKLTVL
notes: In the Biacore assay it was captured by anti-human IgG (Fc), so it carried a human Fc there; also called KL001-8
Usually koff stands for a measure of how fast the partners let go of each other. For orientation: kon means a measure of how fast the partners come together. In the case of B2, the Kd was 0.0671 nM in experiment [4], 6.4 nM in experiment [5] and 0.0142 nM in experiment [3]. Besides, the results for the koff in experiment [6] and in experiment [7] were 0.000277 s⁻¹ and 0.0106 s⁻¹, respectively. The values for the kon in experiment [6] and in experiment [7] were 4.13e+06 M⁻¹ s⁻¹ and 1.65e+06 M⁻¹ s⁻¹, respectively.

B3: KL001-13 (antibody, human IgG1, kappa, V domains shown)
VH: B1 VH with S102G
VL: B1 VL with P25Q
notes: also called KL001-13 candidate antibody
B3: the Kd in experiment [4] was ~0.0632 nM; in experiment [5], ~2.8 nM; in experiment [3], 0.00488 nM. The koff came to 0.000319 s⁻¹ in experiment [6] and 0.00878 s⁻¹ in experiment [7]. The kon turned out to be 5.05e+06 M⁻¹ s⁻¹ in experiment [6] and 3.14e+06 M⁻¹ s⁻¹ in experiment [7].
